This is an account of results in publication PMC9601964.

This series has as its target T1, RihR (XRE-family regulator) (Azorhizobium caulinodans ORS571) (UniProt A8IKA5).
T1 sequence: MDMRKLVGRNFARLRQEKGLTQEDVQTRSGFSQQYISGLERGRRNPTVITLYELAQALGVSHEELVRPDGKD
The series is described as follows: EMSA. The following applies: 50 mM Tris-HCl pH 8.3, 0.25 M KCl, 2.5 mM DTT, 5 mM MgCl2, 0.25 mg/mL BSA, 0.05 mg/mL poly(dI-dC), 2.5 mM EDTA, 1% glycerol; 20 uL, 20 min, room temperature; 6%. For orientation: A gel shift assay detects complexes by their altered migration in electrophoresis.

With “CGGAATTCATCGCGGTGGTATTTTTGCGAGGAAGGCCGCGTTGGAAAACGATAGTCGGTGCTCGTTCATGCCGGCAAATGAGAAGATCGCCCATAGGTATGCAAAAATGATATGATAACAGCTGACCAGCTTTAGCCCGTGCGGACGAGGGGGAGAGGATGCGTTTCAGTCATCTAGAGC (double strand) [non-specific control promoter (Pcontrol)]”, the binding result is listed as “no binding”.
